# “Also recorded” adds a separate entry of the source.
# T1: RSPO3 / RNF43 binding (Homo sapiens, UniProt Q9BXY4)
# T1 construct: purchased Peprotech (RSPO3); Sino Biological (RNF43-His) 16108-H08H (RNF43)
# T1 sequence (Q9BXY4 22-272): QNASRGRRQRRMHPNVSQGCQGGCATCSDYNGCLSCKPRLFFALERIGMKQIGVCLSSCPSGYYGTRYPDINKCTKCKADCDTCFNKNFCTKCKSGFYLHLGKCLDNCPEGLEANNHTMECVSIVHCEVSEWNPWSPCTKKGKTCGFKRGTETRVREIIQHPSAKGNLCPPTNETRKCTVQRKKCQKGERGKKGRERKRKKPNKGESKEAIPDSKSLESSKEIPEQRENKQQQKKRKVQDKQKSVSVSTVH
# T2: recombinant human RSPO3 protein (hRSPO3) (Homo sapiens, UniProt Q9BXY4)
# T2 sequence (Q9BXY4 22-272): T1 sequence (Q9BXY4 22-272)
# B1: hB1: humanized α-RSPO3 antibody derived from murine clone B1; VH SEQ ID NO: 14, VL SEQ ID NO: 16 (antibody, V domains shown)
# VH: QIQLQESGPGLVKPSESLSLTCSVTGYSITSGYYWNWIRQFPGNGLEWMGYISYDGTNNYNPSLKDRISITRDTSKNQFFLKLNSVTAADTATYYCSVLLIQYFNIWGKGTTVTVSS
# VL: DIQMTQSPSSLSASVGERVTITCRTSESVNNFLAWFHQKPGKSPKLLVYHAKTLADGVSSRFSGSGSGTQYSLKINSLQPEDFGNYYCQHFWSIPWTFGGGTKLEIKR
# modifications: Heavy chain variable region; Light chain variable region
# B2: rosmantuzumab (antibody, chains of the INN, looked up, V domains shown)
# VH: QVQLVQSGAEVKKPGASVKVSCKASGYTFTDYSIHWVRQAPGQGLEWIGYIYPSNGDSGYNQKFKNRVTMTRDTSTSTAYMELSRLRSEDTAVYYCATYFANNFDYWGQGTTLTVSS
# VL: DIQMTQSPSSLSASVGDRVTITCKASQSVDYDGDSYMNWYQQKPGKAPKLLIYAASNLESGVPSRFSGSGSGTDFTLTISPVQAEDFATYYCQQSNEDPLTFGAGTKLELK
# Experiments:
# [1] = tested on: NCI-H2030 lung cancer xenograft; assay: RSPO^high NCI-H2030 lung cancer CDX model; type: in vivo, nude mice; details: for terminal average tumor volume: 25 mg/kg i.v. once a week, Day 29; for body weight loss: mouse, in vivo
# Procedure: FIG. 14 is a graph showing the efficacy of hB1 in a RSPO^high NCI-H2030 Lung Cancer CDX model. Mice were treated with hB1 or 131R010 at 25 mg/kg, or control (vehicle) once a week for 4 weeks. On Day 28 of treatment, 7 mice from each of the vehicle, 131R010 and hB1 groups were sacrificed for tumor collection at 24 hours after the […] dose. Data are expressed as mean±SEM. On Day 51 of treatment, 7 mice from each of the Carboplatin, hB1, 131R010 and carboplatin in combination groups were sacrificed for tumor collection. Data are expressed as mean±SEM.
# To evaluate the preclinical in vivo efficacy, RSPO^high NCI-H2030 lung cancer cell-derived xenograft (CDX) model was used in this study. Female nude mice were inoculated subcutaneously at the right flank with one fragment of NCI-H2030 (5*10^6) for tumor development. When the average tumor size reached about 250 mm^3, tumor-bearing mice were randomly allocated into groups and 25 mg/kg of the test articles, 50 mg/kg of carboplatin or vehicle (isotype IgG) were injected intravenously (i.v.) every week for 4 weeks. Tumor volume was measured by caliper every three days (one day dosing and 2 days off) and using the formula: TV=0.5×a×b^2, where a and b is the long and short diameters of the tumor, respectively. Animals were sacrificed due to tumor size reaching humane endpoints, and the last value of the tumor volume was carried forward until the end of the study.
# Statistical analyses were including the mean and standard error, are provided for the tumor volume. Since the two treatment regimens were independent, for comparison between each treatment against control, an independent sample was performed. All data was analyzed using 2way ANOVA multiple comparisons by Prism. P<0.05 was considered to be statistically significant.
# RSPO3 / RNF43 binding = target: T1, RSPO3 / RNF43 binding; assay: Competitive ELISA of RSPO3 binding to RNF43; details: RNF43-His 200 ng/ml, antibody 20 μg/ml
# Source text: FIG. 10 is a set of graphs showing competitive binding of RSPO3 to LGR5 or RNF43 by different α-RSPO3 antibodies. To exam whether different α-RSPO3 antibodies might compete with the binding of RSPO3 to LGR5 or RNF43, recombinant hRSPO3 was coated on a plate. (A) Recombinant LGR5 (22-560)-Fc was conjugated with biotin to facilitate detection. Biotinylated LGR5 was then respectively mixed with various concentrations of either α-RSPO3 antibodies or isotype control Ab and applied to RSPO3-coated wells. Streptavidin-HRP was then added to detect bound biotinylated LGR5; and (B) Mixtures of recombinant His-tagged RNF43 and different α-RSPO3 antibodies, respectively, were applied to each RSPO3-coated wells. Mouse anti-His tag antibody-HRP was then added for detection of bound RNF43. […] The colorimetric reaction was then stopped by 2N HCL and the optical density at 450 nm of each well was determined immediately.
# To exam whether different α-RSPO3 antibodies might compete with the binding of RSPO3 to RNF43, mixtures of recombinant Hig-tagged RNF43 (RNF43-His16108-H08H, Sino Biological) at 200 ng/ml and 20 μg/ml of different α-RSPO3 antibodies, respectively, were applied to each well. […] The colorimetric reaction was then stopped by 2N HCL and the optical density at 450 nm of each well were determined immediately.
# [2] = target: T2, recombinant human RSPO3 protein (hRSPO3); assay: Biacore T200 binding kinetics to immobilized hRSPO3; details: for equilibrium dissociation constants, KD (in words): Biacore T200; for koff (1/s, *10^−5) / kon (1/Ms, *10^6): Biacore T200, 25° C., 1:1 model
# Procedure: FIG. 7 is a graph showing use of Biacore to measure the binding kinetics of α-RSPO3 Abs-antigen interaction. The binding sensorgrams were generated using a Biacore T200 and then fitted to a simple 1:1 interaction model. A series of concentrations of hB1 (0.39-6.25 nM) were injected in a single-cycle with no regenerating of the surface between injections. The association was monitored for 2 min, and the final dissociation time was 15 min hRSPO3 was immobilized on a CM5 chip at 27.5 RU.
# The binding kinetics between α-RSPO3 Abs and recombinant human RSPO3 protein (hRSPO3) were performed at 25° C. using a Biacore T200 biosensor equipped with a CM5 Series S Sensor Chip (GE Healthcare). Running buffer was HBS-EP Buffer (0.01 M HEPES pH 7.4, 0.15 M NaCl, 3 mM EDTA, 0.005% v/v Surfactant P20) with final pH 7.4. hRSPO3 protein was immobilized on CM5 sensor chips with coating densities of about 27.5 response units (RU). The α-RSPO3 Abs were serially diluted 2-fold from 6.25 nM to 0.39 nM in HBS-EP and were injected over the chip surface for 120 s each at a flow rate of 30 μL/min, followed by a final 900 s dissociation phase. Obtained sensorgrams were corrected by double subtracting the signal obtained on a reference surface and the signal of the running buffer. Sensograms were fit globally with BIAcore T200 evaluation software 3.0 using 1:1 binding model to yield affinity constants (KD values) for α-RSPO3 Abs. Replicate measurements were made in separate experiments, using independently prepared α-RSPO3 Abs dilution series and huRSPO3-coated chip surfaces.
Molecule,terminal average tumor volume [1] [mm^3],body weight loss [1],antitumor activity (in words) ([1]; single agent or with carboplatin 50 mg/kg),competition with RNF43 for binding to RSPO3 (RSPO3 / RNF43 binding),"equilibrium dissociation constants, KD (in words) [2]","koff (1/s, *10^−5) [2]","kon (1/Ms, *10^6) [2]"
B1,1124±471.8,no severe body weight loss,significant antitumor activity; also recorded: better anti-cancer efficacy than rosmantuzumab,did not interfere with the binding between RNF43 and RSPO3,picomolar (pM) levels,"3.4 ± 0.1 1/s, *10^−5","1.7 ± 0.8 1/Ms, *10^6"
B2,1327.4±194.3,no severe body weight loss,–,did not interfere with the binding between RNF43 and RSPO3,picomolar (pM) levels,"18.1 ± 0.1 1/s, *10^−5","9.4 ± 1.8 1/Ms, *10^6"

# Reference: patent US11623951B2, “Antibodies to R-spondin 3” (National Health Research Institutes, priority 2017, dated 2023)
